Assay results taken from patent US20250026827A1 (Alector, published 2025).
Residue numbers refer to the chain shown, from its start. Where two headings read alike, the source gives them in different places.

T1: mouse SIRPβ1 on CHO cells (mouse)
T1 construct: Whole entry
T1 chain: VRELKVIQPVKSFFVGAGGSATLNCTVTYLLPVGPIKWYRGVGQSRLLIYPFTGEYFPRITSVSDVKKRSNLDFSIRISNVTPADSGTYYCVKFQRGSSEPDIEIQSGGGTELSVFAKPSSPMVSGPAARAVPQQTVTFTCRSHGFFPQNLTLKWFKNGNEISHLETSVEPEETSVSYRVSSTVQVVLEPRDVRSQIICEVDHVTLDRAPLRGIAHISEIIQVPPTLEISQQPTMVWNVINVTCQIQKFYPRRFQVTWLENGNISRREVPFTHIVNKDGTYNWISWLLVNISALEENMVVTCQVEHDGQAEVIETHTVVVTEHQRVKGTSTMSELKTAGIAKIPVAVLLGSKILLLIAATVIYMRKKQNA

T2: mouse SIRPα on cells (mouse, UniProt P97797 32-513)
T2 construct: whole, on cells
T2 sequence (looked up): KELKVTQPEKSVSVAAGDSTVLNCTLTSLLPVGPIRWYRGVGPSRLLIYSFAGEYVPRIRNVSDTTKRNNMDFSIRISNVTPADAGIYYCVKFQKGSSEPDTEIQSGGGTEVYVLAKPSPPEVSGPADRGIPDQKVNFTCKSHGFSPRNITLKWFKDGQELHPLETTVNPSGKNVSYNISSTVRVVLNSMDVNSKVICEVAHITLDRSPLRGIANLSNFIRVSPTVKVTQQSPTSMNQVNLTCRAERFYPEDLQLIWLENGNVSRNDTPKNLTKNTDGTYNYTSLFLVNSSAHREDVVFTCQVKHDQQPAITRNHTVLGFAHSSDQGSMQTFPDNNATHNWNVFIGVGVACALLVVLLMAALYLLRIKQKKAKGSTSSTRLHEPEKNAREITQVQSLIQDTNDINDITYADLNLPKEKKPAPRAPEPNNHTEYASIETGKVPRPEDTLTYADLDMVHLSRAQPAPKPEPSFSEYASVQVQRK

T3: mouse SIRPα D1-Fc (mouse, UniProt P97797 32-150, limits assumed)
T3 construct: domain: D1
T3 sequence (looked up): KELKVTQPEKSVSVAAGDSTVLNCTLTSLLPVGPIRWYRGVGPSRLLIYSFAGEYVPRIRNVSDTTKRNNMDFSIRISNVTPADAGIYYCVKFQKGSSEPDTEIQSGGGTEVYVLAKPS

B1: SB-3 (antibody, V domains shown)
VH: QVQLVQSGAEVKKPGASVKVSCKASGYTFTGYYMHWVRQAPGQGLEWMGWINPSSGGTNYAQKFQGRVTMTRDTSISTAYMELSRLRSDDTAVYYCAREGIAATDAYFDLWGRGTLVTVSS
VL: EIVMTQSPATLSLSPGERATLSCRASQSVSSYLAWYQQKPGQAPRLLIYDASNRATGIPARFSGSGSGTDFTLTISSLEPEDFAVYYCQQRLFHPPTFGGGTKVEIK
notes: IgG
B2: SB-1 (antibody, V domains shown)
VH: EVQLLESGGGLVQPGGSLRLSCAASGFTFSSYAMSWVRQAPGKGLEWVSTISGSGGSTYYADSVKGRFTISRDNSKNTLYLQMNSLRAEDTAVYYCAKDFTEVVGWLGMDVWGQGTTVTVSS
VL: EIVMTQSPGTLSLSPGERATLSCRASQSVSSSYLAWYQQKPGQAPRLLIYGASSRATGIPDRFSGSGSGTDFTLTISRLEPEDFAVYYCQLLGSSPRTFGGGTKVEIK
notes: IgG; also called SB-1 (p)
B3: SB-8-13 Fab (Fab, V domains shown)
VH: QVQLQESGPGLVKPSETLSLTCAVSGYSISAHYYWGWIRQPPGKGLEWIGSIFHSGHTYYNPSLKSRVTISVDTSKNQFSLKLSSVTAADTAVYYCARGGAMTPAGMDVWGQGTTVTVSS
VL: B2 VL with S54N, L91Q, L92V, G93Y, R97Y
notes: Fab by papain digestion
B4: SB-2 (antibody, V domains shown)
VH: QVQLVESGGGVVQPGRSLRLSCAASGFTFSSYGMNWVRQAPGKGLEWVAVIWYDGSNKYYADSVKGRFTISRDNSKNTLYLQMNSLRAEDTAVYYCARDQTAAAAIWGMDVWGQGTTVTVSS
VL: B2 VL with M4L, L91Q, L92S, G93S, S95H, R97F
notes: IgG; also called SB-2 (p)
B5: SB-8-13 (antibody, V domains shown)
VH: B3 VH
VL: B2 VL with S54N, L91Q, L92V, G93Y, R97Y
notes: IgG
B6: SB-4 (antibody, V domains shown)
VH: QVQLVQSGAEVKKPGASVKVSCKASGYTFTSYGISWVRQAPGQGLEWMGWISAYNGNTNYAQKLQGRVTMTTDTSTSTAYMELRSLRSDDTAVYYCARSGTHFGTYSYSNWFDPWGQGTLVTVSS
VL: B2 VL with M4L, L91Q, L92Y, G93A, S94D, S95A, R97I
notes: IgG
B7: SB-8-15 Fab (Fab, V domains shown)
VH: B3 VH with F53Y, H54Q
VL: B2 VL with S54N, L91Q, L92V, G93Y, R97Y
notes: Fab by papain digestion
B8: SB-8-16 Fab (Fab, V domains shown)
VH: B3 VH with G99A
VL: B2 VL with S54N, L91Q, L92V, G93Y, R97Y
notes: Fab by papain digestion
B9: SB-8-14 Fab (Fab, V domains shown)
VH: B3 VH with A31P, F53Y
VL: B2 VL with S54N, L91Q, L92V, G93Y, R97Y
notes: Fab by papain digestion

How the values were obtained:
[1] = biological target: T4, human SIRPβ1 isoform 1 on cells (human, UniProt O00241 30-398); experiment: cell-based or functional assay
[2] = biological target: T1, mouse SIRPβ1 on CHO cells; experiment: flow cytometry
[3] = biological target: T2, mouse SIRPα on cells; experiment: flow cytometry;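 for FOB: antibodies tested at 1 µg/ml for 30 min on ice against receptor-expressing cells, detected with a PE-labelled secondary antibody, read as mean fluorescence intensity relative to background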
[4] = biological target: T5, human SIRPα on cells (human, UniProt P78324 31-504); experiment: flow cytometry
T5 construct: Whole entry

[5] = biological target: T4, human SIRPβ1 isoform 1 on cells; experiment: flow cytometry
[6] = biological target: T6, human SIRPα domain 1 (D1) Fc fusion (human, UniProt P78324 32-149); experiment: Octet
T6 construct: also called human SIRPα D1-Fc; Human SIRPα Fc; not shown: C-terminal human IgG1 Fc

[7] = biological target: T3, mouse SIRPα D1-Fc; experiment: Octet
[8] = biological target: T1, mouse SIRPβ1 on CHO cells; experiment: flow cytometry
[9] = biological target: T2, mouse SIRPα on cells; experiment: flow cytometry; remark: listed apart in the source;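 for FOB: antibodies tested at 1 µg/ml for 30 min on ice against receptor-expressing cells, detected with a PE-labelled secondary antibody, read as mean fluorescence intensity relative to background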
[10] = biological target: T5, human SIRPα on cells; experiment: flow cytometry; remark: listed apart in the source
[11] = biological target: T7, human SIRPβ1 domain 1 (D1) Fc fusion (human, UniProt O00241 30-148); experiment: Octet, IgG avid
T7 construct: Made in HEK293/T cells with a heterologous signal peptide; also called Human SIRPβ1 D1-Fc; Human SIRPβ1-Fc; not shown: C-terminal human IgG1 Fc

[12] = biological target: T6, human SIRPα domain 1 (D1) Fc fusion; experiment: Octet, IgG avid
Protocol: (§1) Briefly, Octet® affinity measurements were performed by loading IgGs on-line onto AHQ sensors. Sensors were equilibrated off-line in assay buffer for 30 min and then monitored on-line for 60 seconds for baseline establishment. For avid binding measurement, sensors with loaded IgGs were exposed to 100 nM antigen (human SIRPα or SIRPβ1 Fc fusion) for 3 min, and then transferred to assay buffer for 3 min for off-rate measurement. Additional avid binding was determined by loading biotinylated SIRPβ1 monomer on SA sensors and exposuring to 100 nM IgG in solution. Monovalent binding measurements were obtained by loading human SIRPβ1 Fc fusion antigens to AHQ sensor, followed by exposure to 100 nM anti-SIRPβ1 antibody Fab. Additional monovalent measurements were made by loading biotinylated human SIRPβ1 monomer to SA sensor followed by exposure to 100 nM Fab in solution. Kinetics data were fit using a 1:1 binding model in the data analysis software provided by ForteBio.

[13] = biological target: T1, mouse SIRPβ1 on CHO cells; experiment: flow cytometry
Protocol: (§2) Cells were then washed twice and incubated in 100 ul FACS buffer containing 0.5 μg/ml PE-conjugated secondary antibody for 30 minutes on ice. Cells were washed twice in cold FACS buffer and acquired on a BD FACS Canto. Data analysis and calculation of mean fluorescence intensity (MFI) values or 00 positive cells was performed with FlowJo (TreeStar) software version 10.0.7.
(§3) Given the high sequence similarity between receptors of the SIRPβ family, anti-SIRPβ1 antibodies were also screened for cross-reactivity to human SIRPα.

[14] = biological target: T5, human SIRPα on cells; experiment: flow cytometry; remark: listed apart in the source
Protocol: as §2, §3

[15] = biological target: T4, human SIRPβ1 isoform 1 on cells; experiment: flow cytometry; remark: listed apart in the source
Protocol: as §2, §3

[16] = biological target: T8, Soluble, human SIRPβ1-Fc isoform 1 (O00241) (human, UniProt O00241 30-371, limits assumed); experiment: ELISA, antigen coated
T8 construct: Whole entry named; also called human SIRPβ1 isoform 1
Description: Recombinant antigen based on the sequence of SIRPβ1 isoform 1 was used for selecting anti-SIRPβ1 antibodies from yeast library pools. To ascertain if the selected anti-SIRPβ1 antibodies cross-reacted with other isoforms of human SIRPβ1 or with cynomolgus SIRPβ1, recombinant antigens based on human SIRPβ1 isoform 3 sequence and cynomolgus SIRPβ1 isoform 1 sequence were produced by transient transfection in HEK293 cells. Purified, Fc-tagged recombinant proteins were adsorbed onto 96-well plates at 1 μg/mL overnight at 4° C. Plates were subsequently washed with PBS+0.05% Tween-20 and blocked with 1% BSA+PBS for 2 hours at room temperature. Antibodies diluted in blocking buffer at 1 μg/mL were added to wells, serially diluted, and allowed to bind antigen overnight at 4° C. The following day, the primary antibodies were removed and anti-human kappa light chain antibody conjugated to horseradish peroxidase diluted 1:10,000 in blocking buffer were added to wells and incubated for 1 hour at room temperature. Plates were washed with PBS+0.05% Tween-20 and 100 μL of TMB substrate solution was added to wells to generate a colorimetric signal proportional to amount of anti-SIRPβ1 antibody bound to antigen. Once the reaction reached an appropriate color intensity, 100 μL of Stop solution was added to quench the enzyme.
(§4) Eight anti-SIRPβ1 antibodies (four parental antibodies and four corresponding affinity matured antibodies) were selected for analysis.

[17] = biological target: T9, human SIRPβ1-Fc isoform 3 (Q5TFQ8) (human, UniProt Q5TFQ8 30-371, limits assumed); experiment: ELISA on plate-coated huSirpB-Fc (Q5TFQ8.1), anti-human kappa-HRP, A450
T9 construct: Whole entry named; made in HEK293 cells; also called human SIRPβ1 isoform 3
Protocol: To ascertain if the selected anti-SIRPβ1 antibodies cross-reacted with other isoforms of human SIRPβ1 or with cynomolgus SIRPβ1, recombinant antigens based on human SIRPβ1 isoform 3 sequence and cynomolgus SIRPβ1 isoform 1 sequence were produced by transient transfection in HEK293 cells. Purified, Fc-tagged recombinant proteins were adsorbed onto 96-well plates at 1 μg/mL overnight at 4° C. Plates were subsequently washed with PBS+0.05% Tween-20 and blocked with 1% BSA+PBS for 2 hours at room temperature. Antibodies diluted in blocking buffer at 1 μg/mL were added to wells, serially diluted, and allowed to bind antigen overnight at 4° C. The following day, the primary antibodies were removed and anti-human kappa light chain antibody conjugated to horseradish peroxidase diluted 1:10,000 in blocking buffer were added to wells and incubated for 1 hour at room temperature. Plates were washed with PBS+0.05% Tween-20 and 100 μL of TMB substrate solution was added to wells to generate a colorimetric signal proportional to amount of anti-SIRPβ1 antibody bound to antigen. Once the reaction reached an appropriate color intensity, 100 μL of Stop solution was added to quench the enzyme.
as §4

[18] = biological target: T4, human SIRPβ1 isoform 1 on cells; experiment: cell binding titration; target not given
[19] = biological target: T7, human SIRPβ1 domain 1 (D1) Fc fusion; experiment: Octet, Fab monovalent
Protocol: as §1

[20] = biological target: T10, Human SIRPβ HIS (human, UniProt O00241 30-148, limits assumed); experiment: MSD-SET, Fab monovalent
T10 construct: detected with streptavidin, so biotinylated; also called recombinant human SIRPβ1; human SIRPβ1 monomer

[21] = biological target: T5, human SIRPα on cells; experiment: flow cytometry on BWZ cells overexpressing human SIRPα, fluorescent secondary antibody, MFI
Protocol: (§5) To determine antigen specificity of anti-SIRPβ1 antibodies of the present disclosure, cell-based affinity measurements were performed to ascertain the apparent affinities of affinity-matured anti-SIRPβ 1 antibodies to cell surface-expressed antigen. BW5147.G.1.4 cells, an immortalized mouse T-cell line, were engineered to overexpress human SIRPβ1 (BWZ-huSIRPβ1) or human SIRPα (BWZ-huSIRPα). Jurkat cells, an immortalized human T cell line, endogenously express SIRPγ.
(§6) In these experiments, two antibodies previously described were used as positive controls: antibody 18D5 (an anti-SIRPβ antibody that cross-reacts with SIRPα and SIRPβ) and antibody KWAR23 (an anti-SIRPβ antibody that cross-reacts with SIRPα, SIRPβ, and SIRPγ). These antibodies were recombinantly produced on a human IgG4 backbone. […] Serial dilutions of each of the anti-SIRPβ1 monoclonal antibodies and control antibodies were added to 10⁵ cells and allowed to achieve binding equilibrium at 4° C. After addition of fluorescently-labeled secondary antibody and brief washing steps, MFI values as a function of titrated antibody concentration were recorded via FACS analysis.
(§7) Receptor bound antibodies were detected by staining cells with anti-human IgG PE secondary antibody (Southern Biotech). Curves were fit using nonlinear regression analysis with Graphpad Prism 6 software.

[22] = biological target: T11, SIRPγ on Jurkat cells (human, UniProt Q9P1W8 29-387); experiment: flow cytometry on Jurkat cells (endogenous SIRPγ), fold over isotype (MFI)
T11 construct: whole, on cells
Protocol: as §5, §6, §7

[23] = biological target: T4, human SIRPβ1 isoform 1 on cells; experiment: flow cytometry titration, BWZ-huSIRPβ1 cells
Protocol: as §6
In Table 14 below, EC50 values assign relative affinity by adding increasing concentrations of antibody variants to cells overexpressing SIRPβ 1. Receptor bound antibodies were detected by staining cells with anti-human IgG PE secondary antibody (Southern Biotech). Curves were fit using nonlinear regression analysis with Graphpad Prism 6 software.

T8 sequence (O00241 30-371 limits assumed, one chain of several): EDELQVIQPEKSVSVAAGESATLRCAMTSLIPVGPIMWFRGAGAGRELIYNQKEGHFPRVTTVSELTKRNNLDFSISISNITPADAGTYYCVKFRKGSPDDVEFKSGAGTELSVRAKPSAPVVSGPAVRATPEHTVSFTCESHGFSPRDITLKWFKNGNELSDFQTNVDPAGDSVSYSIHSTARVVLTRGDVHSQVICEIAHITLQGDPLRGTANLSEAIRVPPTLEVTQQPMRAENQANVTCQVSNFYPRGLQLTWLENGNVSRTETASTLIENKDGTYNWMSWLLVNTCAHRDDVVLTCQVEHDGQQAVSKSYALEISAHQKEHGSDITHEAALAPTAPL
T4 sequence (O00241 30-398): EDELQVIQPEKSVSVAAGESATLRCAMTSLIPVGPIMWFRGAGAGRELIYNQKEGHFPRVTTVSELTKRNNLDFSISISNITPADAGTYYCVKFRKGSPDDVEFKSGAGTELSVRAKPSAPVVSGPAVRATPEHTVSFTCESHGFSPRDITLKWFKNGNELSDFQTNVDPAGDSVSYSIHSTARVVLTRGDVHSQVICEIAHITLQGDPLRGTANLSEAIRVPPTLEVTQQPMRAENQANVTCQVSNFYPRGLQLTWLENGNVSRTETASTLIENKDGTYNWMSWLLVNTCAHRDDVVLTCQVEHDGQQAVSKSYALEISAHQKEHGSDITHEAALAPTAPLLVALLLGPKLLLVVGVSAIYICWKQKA
T7 sequence (O00241 30-148 limits assumed): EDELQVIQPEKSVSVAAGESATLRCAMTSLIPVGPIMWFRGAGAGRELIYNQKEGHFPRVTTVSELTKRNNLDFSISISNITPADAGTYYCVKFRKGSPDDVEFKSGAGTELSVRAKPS
T10 sequence (O00241 30-148 limits assumed): as above
T9 sequence (Q5TFQ8 30-371 limits assumed, one chain of several): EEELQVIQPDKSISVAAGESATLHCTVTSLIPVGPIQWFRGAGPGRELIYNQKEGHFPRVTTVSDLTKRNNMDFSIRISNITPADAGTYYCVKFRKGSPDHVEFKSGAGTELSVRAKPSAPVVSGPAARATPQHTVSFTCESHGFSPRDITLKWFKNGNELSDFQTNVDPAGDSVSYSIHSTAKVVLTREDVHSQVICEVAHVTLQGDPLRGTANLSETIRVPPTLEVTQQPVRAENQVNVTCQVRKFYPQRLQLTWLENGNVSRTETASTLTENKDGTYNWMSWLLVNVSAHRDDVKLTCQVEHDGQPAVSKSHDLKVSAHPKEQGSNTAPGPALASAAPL
T11 sequence (Q9P1W8 29-387): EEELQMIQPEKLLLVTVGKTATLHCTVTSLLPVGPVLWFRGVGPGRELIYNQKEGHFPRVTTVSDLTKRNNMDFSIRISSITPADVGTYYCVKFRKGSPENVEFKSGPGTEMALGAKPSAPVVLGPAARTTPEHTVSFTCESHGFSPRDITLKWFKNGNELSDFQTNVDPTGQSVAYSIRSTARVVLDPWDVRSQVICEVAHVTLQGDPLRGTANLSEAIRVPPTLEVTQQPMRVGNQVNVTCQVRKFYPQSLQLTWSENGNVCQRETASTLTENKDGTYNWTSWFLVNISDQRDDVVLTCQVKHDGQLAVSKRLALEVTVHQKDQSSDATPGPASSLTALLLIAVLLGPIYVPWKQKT

Row | Binder | viable Raji-Luc cells with neutrophils and anti-CD20 [1] [%] | FOB [2] [fold over background] | FOB [3] [fold over background] | FOB [4] [fold over background] | FOB [5] [fold over background] | binding result [7] | binding result [8] | binding result [9] | binding result [10] | binding result [12] | FOB [13] [fold over background] | FOB [14] [fold over background] | FOB [15] [fold over background] | EC50 [16] [pM] | binding result [17] | EC50 [18] [pM] | Kd [19] [pM] | Kd [20] [pM] | other results
1 | B1 | ~50 | 1.3 | 1.3 | 1.8 | 2.5 | no binding (tested: 100 nM) | no binding (tested: 1 ug/ml) | no binding (tested: 1 ug/ml) | no binding (tested: 1 ug/ml) |  |  |  |  |  |  |  |  |  | binding result [6]: no binding (tested: 100 nM)
2 | B2 | ~50 | 1.1 | 1.4 | 2.3 | 5.7 | no binding (tested: 100 nM) | no binding (tested: 1 ug/ml) | no binding (tested: 1 ug/ml) | no binding (tested: 1 ug/ml) | no binding (tested: 100 nM) | 1 | 1 | 2 | 34 | no binding (tested: 1 ug/mL) | 72 |  |  | Kd [11]: 966 pM
3 | B3 |  |  |  |  |  |  |  |  |  |  |  |  |  |  |  |  | 2850 | 63 | 
4 | B4 | ~50 | 1.3 | 1.1 | 3 | 8.7 | no binding (tested: 100 nM) | no binding (tested: 1 ug/ml) | no binding (tested: 1 ug/ml) | no binding (tested: 1 ug/ml) | no binding (tested: 100 nM) | 1 | 1 | 2 | 32 | no binding (tested: 1 ug/mL) | 235 |  |  | Kd [11]: 1970 pM
5 | B5 |  |  |  |  |  |  | no binding (tested: 1 ug/ml) |  |  | no binding (tested: 100 nM) | 2 | 1 | 7 | 19 | no binding (tested: 1 ug/mL) | 253 |  |  | binding result [21]: no binding (tested: Log nM about 0.8 (about 7 nM)); binding result [22]: no binding (tested: Log nM about 1.8 (about 60 nM)); EC50 [23]: 199 pM
6 | B6 | ~50 | 1.2 | 0.9 | 2 | 1.7 | no binding (tested: 100 nM) | no binding (tested: 1 ug/ml) | no binding (tested: 1 ug/ml) | no binding (tested: 1 ug/ml) |  |  |  |  |  |  |  |  |  | binding result [6]: no binding (tested: 100 nM)
7 | B7 |  |  |  |  |  |  |  |  |  |  |  |  |  |  |  |  | 3730 | 48 | 
8 | B8 |  |  |  |  |  |  |  |  |  |  |  |  |  |  |  |  | 2320 | 55 | 
9 | B9 |  |  |  |  |  |  |  |  |  |  |  |  |  |  |  |  | 3250 | 53 | 
